Target: full-length FUS wild type (UniProt P35637 1-526)
Assay: steady-state fluorescence (2-AP); 150 mM KCl, 5-fold excess BSA; Fluorescence: 10 mM cacodylic acid pH 6.5, 150 mM KCl, 23 C, 150 or 200 nM RNA, 5-fold excess BSA or HCV peptide; pull-down: 5 uM probe annealed in the same buffer, room temperature, RIPA lysate and washes; native PAGE 20%, RNA:peptide 1:1 to 1:3
Settings: protein: recombinant, G quadruplex

Chain of full-length FUS wild type (P35637 whole entry): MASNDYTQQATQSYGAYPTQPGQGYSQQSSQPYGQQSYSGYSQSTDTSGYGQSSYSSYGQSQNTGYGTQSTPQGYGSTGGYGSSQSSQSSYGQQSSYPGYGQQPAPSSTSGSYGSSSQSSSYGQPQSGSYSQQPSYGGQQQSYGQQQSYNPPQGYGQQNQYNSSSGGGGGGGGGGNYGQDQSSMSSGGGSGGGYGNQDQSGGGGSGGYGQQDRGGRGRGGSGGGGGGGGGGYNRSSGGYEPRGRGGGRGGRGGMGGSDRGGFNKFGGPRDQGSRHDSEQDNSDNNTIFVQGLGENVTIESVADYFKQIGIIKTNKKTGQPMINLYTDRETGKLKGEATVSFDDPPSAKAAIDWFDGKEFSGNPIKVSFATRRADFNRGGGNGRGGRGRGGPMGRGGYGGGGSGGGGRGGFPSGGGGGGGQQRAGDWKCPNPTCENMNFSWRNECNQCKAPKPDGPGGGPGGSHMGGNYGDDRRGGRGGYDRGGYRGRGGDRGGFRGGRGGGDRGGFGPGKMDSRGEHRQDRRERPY

Binder	Kd (label: 2-AP at position 18) [nM]	Kd (label: 2-AP at position 4) [nM]
GGGGUUGGGGAGGGUGUAGGGGGUGGGG (structured_RNA, A18 replaced by 2-aminopurine) [Shank1a GQ 2-AP]	88 ± 27	–
GGGAGGGAGGGUGGG (structured_RNA, A4 replaced by 2-aminopurine) [PSD-95 GQ2 2-AP]	–	28 ± 10

— paper PMC7018707, “FUS Recognizes G Quadruplex Structures Within Neuronal mRNAs”
